Results reported in the DeepSol protein solubility set.

Test: soluble on expression in E. coli; label from the status in PepcDB or PDB records

Row | Sequence | soluble on expression in E. coli
1 | MSLELPILPTSVIGSYPKPRWLLRMYKLRELGKIPEEDFKEAVRDASISVLREHERAGIDIPWDGEMGRSEMTEYFTSKIKGFKFYGPVRVWGNAYFNKAAAVDKLEYEEPLVLDEFLWVKENTTREIVKIPITGPYTIAEWSFNEYYPDKESFVMDLAEIINKELKVLEKHGAKFVQLDEPAMLNHPSEVPLAVDAINRAVKGIKMKVGLHVCYSNYNLLADYFDEIKVTQFALEFANRNFRDMDFLKKLSNKELGFGVVDVHNPRVESVEEIRQAIKKVFTYLEPEWVYINPDCGLKLLDRKIAYQKLVNMVQAVRGVRKELEKEGKTTIEFRTLKDIEGHHHHHH | soluble
2 | MSLELVSFVKSHIDQAVYFSTITSNPIEFNLPESLSLDTTDIENDIKTSCDEIFYSTGSYIPPMLNTLEQHLNLRIEYFNNLIEFTKINFNYKISPTVKLYLIEKISILKCCLALFKYISDKAILSNIWRDLVLNSFNDSSLEEFVLGKLDEFPRLFTIFLNDLSAKIVGFNDVEEKVKIVDLLITCVYDAVLENCEKSIRYDALQLDPLELDNKPMWFTNLTNIKAMNNIFFSFIFPDNDLSVENKQRLLTVVKLLYYVINQNMIWHKSMKQIETEEYKEVEALYNDNHANWIHVLCNIGVHEEALQICEFYHDLGGLVEILEKLDFEISRELYDQYFKMFGYEFATILFEYYINAKDLKALFFKFPNHHDLLNKFLLSSPPKYYKYAWIQEIIDNDYRKASDILTTLSVGEAGDGCEISERQLHLNIAKLSGLVDENFDANQMIEIQRDIDTIDHQTRIKKLLEEDPTGISMNQAFANNEFGEKFQETKYCIQNDKSINIKYIIDMLSMMDSVENLYEALKLTCIYRHSLGYEVSKYFQQSIWRRCIIEESKDGVIQLEGENSKIYQLLVKYFEGKLYEYDCKLPFVSFLMDRIGISMNFLSIIYGNDNNVLVSISDSIEREYHDLIRIGDTLESQLSTIIGSANESTGNECTINYETKSIEYEGHHHHHH | soluble
3 | MSLEMEHINENTIRVLIGNEDLADRGITFLDLLGNHKDVENFFYSILEEVDVEDEFQGSEAVTFQVLPKNDGLELFISKNVAMDDLSSLEGLSEVNADVSELIRKQIEADKAAADELDEMEATDETNRNVIFELDNFEAMIQLSKEVFMQSVLTNLYTYNDRYYLQVLFLTDELEKTNVDNEIAQILEFAHKTTVTQDTLVEYGTCIMERSALELTRYYFNDEGHHHHHH | soluble
4 | MSLEMYPKIEDIKASYQNYCEFLEKVNTINLLKHKGKYIHYEDFNDNQIKRKIEKLESSILKTNVKYQKGAYIIYYKLRPGVIEFLRTMSEKYEIYLYTMGTLEHAKSCLFLLDPLRKFFGNRVFSRKDCLNSLKHLNKILPTYRSVSICIDDSDYIWKENSSCIKVHGYNYFPDINFFEDIKRAPYFLTKFFTFAQSYLNFTSNIYRFINFKCSEHEEFLKEGHHHHHH | not soluble
5 | MSLENKIVKIEPQSIAEEMGIEVGDSLISINGKEVKDIIDYRFLMADEYVVVKIQKTNKEIWELEIEKEYDEKLGVEFESGILDSAKSCRNKCIFCFIDQLPKGMRKTLYFKDDDSRLSFLQGNFVTLTNMSDDDIDRIIKYRISPINISVQTTNPELRKKMLNNKFAGNLMERMKKLSNAGITMNCQVVLCPGINSGEEFSKTVNDLYKLYPSVKNIAGVPVGITSYREGLFNMVPYDSQSALKEIENIKPIQEKFIKEIGSPFVRLSDEFYVLSGIPIPKAEFYGEFEQFEDGIGMIRTFRDNINMSLDNLKDGIHKSFTMVTGVLAYEEIENAAKMLMEKSRGLKINVIKVINEFFGEKITVAGLLTGRDILNYLKRNEVGDYIILPSNMLKSDEDVFLDDVKVLDIEKELNKKVLVCNYSGEDLVDIINKNGREEEGHHHHHH | not soluble
6 | MSLENTEKLKNSKEVIAYIAECFPNCFTLEGEAKPLKIGIFQDLADRLNDDPKVSKTQLRAALRQYTSSWRYLHGVKPGATRVDLDGNPCGELEEQHVEHAQAALAESKARVEARRKEQVKKVREEAKANKPKAKKPQQARRPQNAPKVEKKPVETRALAASELNVGNQVNVNMGKGNMAATIVEVNKEDVRVQLANGLQMVVKAEHLRAEGGSHHHHHH | soluble
7 | MSLEPIGNVIKKIVKERNLGSKEDILNQVLQDPDINAFLQANKAKIDQKMIKNSMSGLYEFYSQKRNPSKVMAGYAPQLFLNGKVIDVRYAPTQAKVAQDRKRAAKKRLHLIDLPGRLHDVELSKIDITDDRNQVLTLIYDFLNKYSKDSHQQGLYLSGDFGVGKTYILAGLANYVVTNMEKDVVFLHVPTFIAGLASHFGDNSLQDEIRRLSECDLLILDDIGAETLSQWSRDDVLGVILQARMDNVLPTFFSSNLDMEALESHFEETRNATDPVKARRLMQRIRFLAKEVVVSGPDRRNSLREGHHHHHH | soluble
8 | MSLEVYFSGTIERIIFENPSNFYRILLLEIDDTDAEDFDDFEIIVTGTMADVIEGEDYTFWGQIVQHSKYGEQLQISRYDRAKPTSKGLVKYFSSSHFKGIGLKTAQKIVDTYGENTIDEILQHPEKLEGIAGLSAKNREAFVSTLRLNYGTEMILAKLANYGIPNKLAFQIQDFYKEETLDVVENYPYQLVEDIKGLGFTIADQLAEELGIESQAPERFRAGLVHSLFQACMETGDTYVEARDLLEQTLTLLESSRPVELDPSQVAQELSYLIEEDKVQQIDTKIFDNSLFFAEEGIRSHLVRILEKGKQKSHDLETIQKHITTVEQELGIEYDNIQKQAICDAIQNKVFILTGGPGTGKTTVINGIIAVYALLEGLDFRKKSNLPILLAAPTGRAARRMNELTGLPSATIHRHLGMTGDDDTSHLEDYLDADFIIVDEFSMVDTWLANQLFSNISSNSKILIVGDSDQLPSVSPGQVLADLLHIPLIPQTRLEKIYRQSKESTIVTLASQIRQGILPADFTQKKADRSYFEIASGHIPATIEKILGAALRNGIPARDIQVLAPMYRGTAGIDAINQLMQDLLNPPQKDQLSFEAPQCHYRKRDRVIHLVNDAEINVFNGDLGAITDLIPGKYTESKQDEIVIDFDGNEVSYPRNEWYKIRLAYAMSIHKSQGSEFPVVILPITSASRRMLERNLIYTAITRAKSKLILLGELQAFDYATQHIGTARKTYLIERFSDLLENVEEKQQAVSETVTSSASEQSYILTEENWDRIPAMIGITDTDLKEIFGKEGHHHHHH | soluble
9 | MSLFHFVIKGTGFSSKNLQEIKVYEETLFCIDEAGVIQEIIEPDAEAYETVLAEQKEAQRFQELPQDSYLLPGFVDLHVHAPQWAQSGTALDIPLYEWLNTYTFPLESKFADLAFAQQVYDELVTQLLANGTTTALYFATIHYEASRRLAEICAEKGQRGLIGKVVMDDLNENPEYYRDQTTQQALEETERFIQEIQTLAQQTKQGVYPVVTPRFIPSCTEEALKGLGELAAKYQVHVQSHCSESDWEHQFVQERFEKNDAQALNDFGLLTEKAVMAHAGFLEEADMNLFHETGTAVAHCPISNAYFGNAVTPIAKLVHQHQVEVGLGSDLSGGFSPSLFDNLKQAVISSRMLEDGVDATKKPEVRGVKTARITVNEAFYLATAGGGQALSLPIGKLEKGYAWDVQIINTSLSQARIPKNPGESLLDIFQKILYLARPENIREVWVQGEKVHDKNLMSATKGVEGHHHHHH | soluble
10 | MSLFLDVQGTLISDHDKSLIHGAKELIDFLNAKNLPYLIITNNTKKLDFLEKLQQKGLVIKENAYIDPFSVLKHLLRPCKVAAFGADEFVKSLENLGFELDFVNPSAVLVASYDDFKFKDFATMIELARREVRFIAMHETSIYKKDGRPYPGVGSIMAMLKNAIDFEYEVVGKPSIAFYKEALNLIRRQNSKIDFEDIKIISDDFRGDLLKAKELGMKTLLVLSGKISDTKGLDTDLLDGVYPSVFEFLKDLKCQIEGHHHHHH | not soluble
11 | MSLFQMSYYYSGLGWDFIQHVDQTNGVLNVVSPDFFYIRKDGSLLLRSANPDVIKALHRRKLKVVPFLSNHWDQDLGRFALMNRVLLAKQISHAIEELDLDGVNIDIENLTEKDRNLFTDFIRLVRKSIPRHKEVSVAVAANPFGWTKGWHGSYDYEYLAKYADYLMVMAYDESRLAGPTASVGWVEKSIQYVLTQKISPQKLVLGLPFYGRCWMEGQSASQAIPLYLVVSKKAEGHHHHHH | not soluble
12 | MSLFTGPIVAVGEYVEGLGEGRRYVSIPYYRREIERVIGARPFPGTFNVRVEREERESLRELASSYGYRIEPHGEYGGAWLYPCLVNGRPAWLVFPDLTEHRDQVELISETELRRELNVIHGDMVKIEVWGPSTWKLARRLTCGPSGGREGHHHHHH | soluble
13 | MSLGAFLDKPKTEKHNAHGAGNGLRYGLSSMQGWRVEMEDAHTAVVGIPHGLEDWSFFAVYDGHAGSRVANYCSTHLLEHITTNEDFRAAGKSGSALELSVENVKNGIRTGFLKIDEYMRNFSDLRNGMDRSGSTAVGVMISPKHIYFINCGDSRAVLYRNGQVCFSTQDHKPCNPREKERIQNAGGSVMIQRVNGSLAVSRALGDYDYKCVDGKGPTEQLVSPEPEVYEILRAEEDEFIILACDGIWDVMSNEELCEYVKSRLEVSDDLENVCNWVVDTCLHKGSRDNMSIVLVCFSNAPKVSDEAVKKDSELDKHLESRVEEIMEKSGEEGMPDLAHVMRILSAENIPNLPPGGGLAGKRNVIEAVYSRLNPHRESDGGAGDLEDEGHHHHHH | soluble
14 | MSLGAGQPLGGYAEDLEGRQADLPKYSRANVRIVFAAVFPESNVYQGGEGYPTPSSSRLLLLDQVKTYYALSSIHGVEIIESWRSAQEVLEAPRWRLGLLLHLEGADALADILDLELLHRLGFRSLGLTWNHDNRWAASCKTRRDYGLTQSGEDLVKKAAELGVIIDLAHASDKTVADAASASPKPVIVSHANFRWKVDSPRNVGEEAVEAVVSKGGVIGYSLISTLITRGRHPTLHDVASQMAEFVEVYGHRHLAIGTDYHGLLDIRPPTGLESIDRLPRLLEALADAGLSDRQIEAIAYGNIARVIREVLPGSEGHHHHHH | soluble
15 | MSLGAQADTILNVATAGDQNMVDYVKTWLGPKFEAAHPGVKVRVIGTGPGDAGSNKISEKLTAQQESGAQQWDIDVAVVHQKAGGEQVAKGLLQKYRQDIQTGGMVSSPSATQALGVNVDGYVMPMFLSQTAIAWNSDLVTTPPASYDELVAWTQKHPQAFGYNGIKNGMSGVSFVVGWIYAYGTDAQRLSAGPYDKSVEKGWQQAYEKLKAFNKNVTFTPGNAGTLDMLSRGEIAMGPVWVDMFYSWKDQGKLPPSIKLALLAPGMPGQPMYYVIPAKAANPQLARDFIALATSPEVQAQGIVKQFNWYPGIDAGQVKPKLDAATWQKLFAEISPEALAKYGKSFPIAPYFDDIKEGYESQVANEGHHHHHH | soluble
16 | MSLGDLLTFATGHKYYGINFDEDERGWYYREWAPEAYEVYLTGDFNDWDRRSHPLTRNEFGVWQIFLPYDLYQKRFVHKSKIKVQIVGANGTHDRIPAYITRVVQDTETTDFSGQLWFPQKPFEWTDRDFNLRKIKNPIIYEAHVGMAQEKEGVGTYREFADKIVPRIRQMGYNSIQLMAVMEHPYYGSFGYHVSNFFAPSSRFGTPEDLKYLVDRAHKFGLAVIMDVVHSHAVKNLSEGLNEFDGSDHQYFHPGDRGYHTGWDSKLFDYGKLEVKRFLLSNLRYWLEEYHFDGFRFDGVTSMLYFDHGMKTFDSYDTYFKGGVDFDAVTYLQLANEVTHRYLKDSITIAEDVSGMPGLSRSIRDGGVGFDYRLAMGIPDFWIKYLKHLQDEQWNIYEMWSTLTNRRYKEKTIAYAESHDQAMVGDKTIAFWLMDKEMYFHMQVDDPNPVIDRGIAIHKLLRLFTFALGGEGYLNFMGNEFGHPEWIDFPREGNGWSYQYARRQWSLVDNPKLKYQYLGAFDEAMMRLVRKTRLLAAEPAQQLNMDDHNKVIIFERNNMIFVFNFSVSNSVFDYKFKSFAPGTFEIVLNSDDTRFGGHGRVDDTLEYHTNTEGQLSIYTPNRSVLVFQRKEASEGHHHHHH | not soluble
